US20120034160A1 (AbbVie / Abbott, published 2012)

T1: Recombinant Human IL-17 (human, UniProt Q16552 20-155, limits assumed)
T1 construct: bought reagent
T1 sequence (looked up): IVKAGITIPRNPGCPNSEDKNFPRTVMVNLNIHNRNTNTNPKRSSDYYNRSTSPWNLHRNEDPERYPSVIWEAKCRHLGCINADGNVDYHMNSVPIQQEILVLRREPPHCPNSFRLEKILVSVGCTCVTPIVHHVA


What was measured:
Recombinant Human IL-17 = target: T1, Recombinant Human IL-17; experiment: Biacore SPR; N-terminal VD
Experimental: (§1) The BIACORE assay (Biacore, Inc, Piscataway, N.J.) determines the affinity of antibodies or DVD-Ig with kinetic measurements of on-rate and off-rate constants. Binding of antibodies or DVD-Ig to a target antigen (for example, a purified recombinant target antigen) was determined by surface plasmon resonance-based measurements with a Biacore® 1000 or 3000 instrument (Biacore® AB, Uppsala, Sweden) using running HBS-EP (10 mM HEPES [pH 7.4], 150 mM NaCl, 3 mM EDTA, and 0.005% surfactant P20) at 25° C. All chemicals were obtained from Biacore® AB (Uppsala, Sweden) or otherwise from a different source as described in the text. For example, approximately 5000 RU of goat anti-mouse IgG, (Fcγ), fragment specific polyclonal antibody (Pierce Biotechnology Inc, Rockford, Ill.) diluted in 10 mM sodium acetate (pH 4.5) was directly immobilized across a CM5 research grade biosensor chip using a standard amine coupling kit according to manufacturer's instructions and procedures at 25 μg/ml. Unreacted moieties on the biosensor surface were blocked with ethanolamine. Modified carboxymethyl dextran surface in flowcell 2 and 4 was used as a reaction surface. Unmodified carboxymethyl dextran without goat anti-mouse IgG in flow cell 1 and 3 was used as the reference surface. For kinetic analysis, rate equations derived from the 1:1 Langmuir binding model were fitted simultaneously to association and dissociation phases of all eight injections (using global fit analysis) with the use of Biaevaluation 4.0.1 software. Purified antibodies or DVD-Ig were diluted in HEPES-buffered saline for capture across goat anti-mouse IgG specific reaction surfaces. Antibodies or DVD-Ig to be captured as a ligand (25 μg/ml) were injected over reaction matrices at a flow rate of 5 μl/min. The association and dissociation rate constants, kₒₙ (M⁻¹s⁻¹) and koff (s⁻¹) were determined under a continuous flow rate of 25 μl/min. Rate constants were derived by making kinetic binding measurements at different antigen concentrations ranging from 10−200 nM. The equilibrium dissociation constant (M) of the reaction between antibodies or DVD-Igs and the target antigen was then calculated from the kinetic rate constants by the following formula: KD=koff/kₒₙ. Binding was recorded as a function of time and kinetic rate constants are calculated.

Recombinant Human IL-1β = target: T2, Recombinant Human IL-1β (human, UniProt P01584 117-269); experiment: Biacore SPR; C-terminal VD
T2 construct: bought reagent; also called IL-1B
Experimental: as §1

Binder | Kd (Recombinant Human IL-17) [nM] | koff (Recombinant Human IL-17) [s⁻¹] | kon (Recombinant Human IL-17) [M⁻¹ s⁻¹] | Kd (Recombinant Human IL-1β) [nM] | koff (Recombinant Human IL-1β) [s⁻¹] | kon (Recombinant Human IL-1β) [M⁻¹ s⁻¹]
DVD1287 (bispecific antibody, human IgG1, kappa, DVD-Ig, outer AB275, inner AB270, linker set 1; V1 wt hIgG1, V2 kappa; also called DVD1287H; DVD1287L) heavy: not shown light: EIVLTQSPDFQSVTPKEKVTITCRASQNIGSELHWYQQKPDQSPKLLIKYASHSISGVPSRFSGSGSGTDFTLTINGLEAEDAATYYCHQSDTLPHTFGQGTKVDIKRTVAAPDTQVTQSPSSLSASVGDRVTITCITSTDIDVDMNWYQQKPGKPPKLLISQGNTLRPGVPSRFSSSGSGTDFTFTISSLQPEDFATYYCLQSDNLPLTFGQGTKLEIKRTVAAPSVFIFPPSDEQLKSGTASVVCLLNNFYPREAKVQWKVDNALQSGNSQESVTEQDSKDSTYSLSSTLTLSKADYEKHKVYACEVTHQGLSSPVTKSFNRGEC | 0.3 | 4.7e-05 | 160000 | 1.2 | 0.00037 | 310000
DVD1291 (bispecific antibody, human IgG1, kappa, DVD-Ig, outer AB275, inner AB272, linker set 1; V1 wt hIgG1, V2 kappa; also called DVD1291H; DVD1291L) heavy: not shown light: EIVLTQSPDFQSVTPKEKVTITCRASQNIGSELHWYQQKPDQSPKLLIKYASHSISGVPSRFSGSGSGTDFTLTINGLEAEDAATYYCHQSDTLPHTFGQGTKVDIKRTVAAPETTVTQSPSSLSASVGDRVTITCITSTDIDVDMNWYQQKPGKPPKLLISQGNTLRPGVPSRFSSSGSGTDFTFTISSLQPEDFATYYCLQSDNLPLTFGQGTKLEIKRTVAAPSVFIFPPSDEQLKSGTASVVCLLNNFYPREAKVQWKVDNALQSGNSQESVTEQDSKDSTYSLSSTLTLSKADYEKHKVYACEVTHQGLSSPVTKSFNRGEC | 0.048 | 6e-07 | 12000 | 2.8 | 0.00058 | 210000
DVD1289 (bispecific antibody, human IgG1, kappa, DVD-Ig, outer AB275, inner AB271, linker set 1; V1 wt hIgG1, V2 kappa; also called DVD1289H; DVD1289L) heavy: not shown light: EIVLTQSPDFQSVTPKEKVTITCRASQNIGSELHWYQQKPDQSPKLLIKYASHSISGVPSRFSGSGSGTDFTLTINGLEAEDAATYYCHQSDTLPHTFGQGTKVDIKRTVAAPDTVVTQSPAFLSVTPGEKVTITCITSTDIDVDMNWYQQKPDQPPKLLISQGNTLRPGVPSRFSSSGSGTDFTFTISSLEAEDAATYYCLQSDNLPLTFGQGTKLEIKRTVAAPSVFIFPPSDEQLKSGTASVVCLLNNFYPREAKVQWKVDNALQSGNSQESVTEQDSKDSTYSLSSTLTLSKADYEKHKVYACEVTHQGLSSPVTKSFNRGEC | 0.4 | 5.6e-05 | 140000 | 1.3 | 0.00048 | 370000
DVD1283 (bispecific antibody, human IgG1, kappa, V1 wt hIgG1, V2 kappa; also called DVD1283H; DVD1283L) heavy: not shown light: EIVLTQSPDFQSVTPKEKVTITCRASQNIGSELHWYQQKPDQSPKLLIKYASHSISGVPSRFSGSGSGTDFTLTINGLEAEDAATYYCHQSDTLPHTFGQGTKVDIKRTVAAPDIQMTQSPSSLSASVGDRVTITCRASGNIHNYLTWYQQTPGKAPKLLIYNAKTLADGVPSRFSGSGSGTDYTFTISSLQPEDIATYYCQHFWSIPYTFGQGTKLQITRTVAAPSVFIFPPSDEQLKSGTASVVCLLNNFYPREAKVQWKVDNALQSGNSQESVTEQDSKDSTYSLSSTLTLSKADYEKHKVYACEVTHQGLSSPVTKSFNRGEC | 0.46 | 5.8e-05 | 130000 | 0.1 | 0.00026 | 2.5e+06
DVD1285 (bispecific antibody, human IgG1, kappa, V1 wt hIgG1, V2 kappa; also called DVD1285H; DVD1285L) heavy: not shown light: EIVLTQSPDFQSVTPKEKVTITCRASQNIGSELHWYQQKPDQSPKLLIKYASHSISGVPSRFSGSGSGTDFTLTINGLEAEDAATYYCHQSDTLPHTFGQGTKVDIKRTVAAPDIQMTQSPSSLSASVGDRVTITCRASGNIHNYLTWYQQTPGKAPKLLIYNAKTLADGVPSRFSGSGSGTDYTFTISSLQPEDIATYYCQHFWSIPYTFGQGTKLQITRTVAAPSVFIFPPSDEQLKSGTASVVCLLNNFYPREAKVQWKVDNALQSGNSQESVTEQDSKDSTYSLSSTLTLSKADYEKHKVYACEVTHQGLSSPVTKSFNRGEC | 0.39 | 5.8e-05 | 150000 | 0.24 | 0.0002 | 820000
DVD1590 (bispecific antibody, human IgG1, kappa, V1 wt hIgG1, V2 kappa; also called DVD1590H; DVD1590L) heavy: not shown light: DIQMTQSPSSLSASVGDRVTITCRASSGIISYIDWFQQKPGKAPKRLIYATFDLASGVPSRFSGSGSGTDYTLTISSLQPEDFATYYCRQVGSYPETFGQGTKLEIKRTVAAPSVFIFPPDIQMTQSPSSLSASVGDRVTITCRASGNIHNYLTWYQQTPGKAPKLLIYNAKTLADGVPSRFSGSGSGTDYTFTISSLQPEDIATYYCQHFWSIPYTFGQGTKLQITRTVAAPSVFIFPPSDEQLKSGTASVVCLLNNFYPREAKVQWKVDNALQSGNSQESVTEQDSKDSTYSLSSTLTLSKADYEKHKVYACEVTHQGLSSPVTKSFNRGEC | 0.0018 | 7e-06 | 3.8e+06 | 0.19 | 4.6e-05 | 250000

Further binders by falling Kd (Recombinant Human IL-17), results first:

Kd (Recombinant Human IL-17) [nM] | koff (Recombinant Human IL-17) [s⁻¹] | kon (Recombinant Human IL-17) [M⁻¹ s⁻¹] | Kd (Recombinant Human IL-1β) [nM] | koff (Recombinant Human IL-1β) [s⁻¹] | kon (Recombinant Human IL-1β) [M⁻¹ s⁻¹] | Binder
0.0064 | 2e-05 | 3.2e+06 | 0.0072 | 4.9e-06 | 690000 | DVD1592 (bispecific antibody, human IgG1, kappa, V1 wt hIgG1, V2 kappa; also called DVD1592H; DVD1592L) heavy: not shown light: DIQMTQSPSSLSASVGDRVTITCRASSGIISYIDWFQQKPGKAPKRLIYATFDLASGVPSRFSGSGSGTDYTLTISSLQPEDFATYYCRQVGSYPETFGQGTKLEIKRTVAAPSVFIFPPDIQMTQSPSSLSASVGDRVTITCRASGNIHNYLTWYQQTPGKAPKLLIYNAKTLADGVPSRFSGSGSGTDYTFTISSLQPEDIATYYCQHFWSIPYTFGQGTKLQITRTVAAPSVFIFPPSDEQLKSGTASVVCLLNNFYPREAKVQWKVDNALQSGNSQESVTEQDSKDSTYSLSSTLTLSKADYEKHKVYACEVTHQGLSSPVTKSFNRGEC
0.0056 | 2.3e-05 | 4.2e+06 | 0.6 | 0.00043 | 710000 | DVD1594 (bispecific antibody, human IgG1, kappa, DVD-Ig, outer AB273, inner AB270, linker set 2; V1 wt hIgG1, V2 kappa; also called DVD1594H; DVD1594L) heavy: not shown light: DIQMTQSPSSLSASVGDRVTITCRASSGIISYIDWFQQKPGKAPKRLIYATFDLASGVPSRFSGSGSGTDYTLTISSLQPEDFATYYCRQVGSYPETFGQGTKLEIKRTVAAPSVFIFPPDTQVTQSPSSLSASVGDRVTITCITSTDIDVDMNWYQQKPGKPPKLLISQGNTLRPGVPSRFSSSGSGTDFTFTISSLQPEDFATYYCLQSDNLPLTFGQGTKLEIKRTVAAPSVFIFPPSDEQLKSGTASVVCLLNNFYPREAKVQWKVDNALQSGNSQESVTEQDSKDSTYSLSSTLTLSKADYEKHKVYACEVTHQGLSSPVTKSFNRGEC
0.0051 | 1.8e-05 | 3.5e+06 | 1.2 | 0.00074 | 630000 | DVD1598 (bispecific antibody, human IgG1, kappa, DVD-Ig, outer AB273, inner AB272, linker set 2; V1 wt hIgG1, V2 kappa; also called DVD1598H; DVD1598L) heavy: not shown light: DIQMTQSPSSLSASVGDRVTITCRASSGIISYIDWFQQKPGKAPKRLIYATFDLASGVPSRFSGSGSGTDYTLTISSLQPEDFATYYCRQVGSYPETFGQGTKLEIKRTVAAPSVFIFPPETTVTQSPSSLSASVGDRVTITCITSTDIDVDMNWYQQKPGKPPKLLISQGNTLRPGVPSRFSSSGSGTDFTFTISSLQPEDFATYYCLQSDNLPLTFGQGTKLEIKRTVAAPSVFIFPPSDEQLKSGTASVVCLLNNFYPREAKVQWKVDNALQSGNSQESVTEQDSKDSTYSLSSTLTLSKADYEKHKVYACEVTHQGLSSPVTKSFNRGEC
0.0033 | 1.3e-05 | 4.1e+06 | 0.51 | 0.00036 | 700000 | DVD1596 (bispecific antibody, human IgG1, kappa, DVD-Ig, outer AB273, inner AB271, linker set 2; V1 wt hIgG1, V2 kappa; also called DVD1596H; DVD1596L) heavy: not shown light: DIQMTQSPSSLSASVGDRVTITCRASSGIISYIDWFQQKPGKAPKRLIYATFDLASGVPSRFSGSGSGTDYTLTISSLQPEDFATYYCRQVGSYPETFGQGTKLEIKRTVAAPSVFIFPPDTVVTQSPAFLSVTPGEKVTITCITSTDIDVDMNWYQQKPDQPPKLLISQGNTLRPGVPSRFSSSGSGTDFTFTISSLEAEDAATYYCLQSDNLPLTFGQGTKLEIKRTVAAPSVFIFPPSDEQLKSGTASVVCLLNNFYPREAKVQWKVDNALQSGNSQESVTEQDSKDSTYSLSSTLTLSKADYEKHKVYACEVTHQGLSSPVTKSFNRGEC
